Laboratory results reported in patent US8513182B2, “Natural polypeptides for oral health care” (priority 2007, dated 2013).

System: Streptococcus mutans
Test: activity of full length lactoferrin variants expressed in insect cells against S. mutans
Format: cell-based
Settings: Lf variant expressed in an insect vector
From the text: Caries is the single most common chronic childhood disease, five times more common than asthma. Over 70% of children […] have cavities. Over 108 million Americans lack dental health insurance so that treatment of this infection is lacking. S. mutans is considered one of the microbes most associated with dental decay.
Lactoferrin (Lf) is a multifunctional protein that is found in mammary secretion, tears and saliva and in the gastrointestinal tract. Its main function is to sequester iron from its surroundings to prevent oral microbes from attaining iron, a mineral necessary for survival. In addition, in its N-terminus, Lf has a region that has antimicrobial properties. This region is called the defensin region and it has been shown since 1980's that Lf can kill many types of bacteria including oral bacteria. It was also shown that within that N-terminus region, from amino acid position 11 to 31, at least two polymorphic forms exist. For the most part variation in this defensin region at amino acid position 29 can either contain arginine or lysine. […] Further we then determined that pure lactoferrin would have limited usefulness in the oral cavity unless it was linked to something that would allow it to bind to the tooth surface. […]

B1: arginine variant: more common Lf variant with arginine at position 29, expressed in an insect vector (protein, UniProt P02788 20-710, looked up)
Lactotransferrin: GRRRSVQWCAVSQPEATKCFQWQRNMRKVRGPPVSCIKRDSPIQCIQAIAENRADAVTLDGGFIYEAGLAPYKLRPVAAEVYGTERQPRTHYYAVAVVKKGGSFQLNELQGLKSCHTGLRRTAGWNVPIGTLRPFLNWTGPPEPIEAAVARFFSASCVPGADKGQFPNLCRLCAGTGENKCAFSSQEPYFSYSGAFKCLRDGAGDVAFIRESTVFEDLSDEAERDEYELLCPDNTRKPVDKFKDCHLARVPSHAVVARSVNGKEDAIWNLLRQAQEKFGKDKSPKFQLFGSPSGQKDLLFKDSAIGFSRVPPRIDSGLYLGSGYFTAIQNLRKSEEEVAARRARVVWCAVGEQELRKCNQWSGLSEGSVTCSSASTTEDCIALVLKGEADAMSLDGGYVYTAGKCGLVPVLAENYKSQQSSDPDPNCVDRPVEGYLAVAVVRRSDTSLTWNSVKGKKSCHTAVDRTAGWNIPMGLLFNQTGSCKFDEYFSQSCAPGSDPRSNLCALCIGDEQGENKCVPNSNERYYGYTGAFRCLAENAGDVAFVKDVTVLQNTDGNNNEAWAKDLKLADFALLCLDGKRKPVTEARSCHLAMAPNHAVVSRMDKVERLKQVLLHQQAKFGRNGSDCPDKFCLFQSETKNLLFNDNTECLARLHGKTTYEKYLGPQYVAGITNLKKCSTSPLLEACEFLRK
killing / survival of S. mutans: little to no effect
